Measured values published in patent US20210024625A1 (published 2021).

What was measured:
Assay in all cases: cell-based or functional assay
[1] = molecular target: PfRH5 from Plasmodium falciparum strain Cam3.II (Plasmodium falciparum)
[2] = molecular target: PfRH5 from Plasmodium falciparum strain RF7 (Plasmodium falciparum)
[3] = molecular target: T1, PfRH5 from Plasmodium falciparum strain 3D7 (Plasmodium falciparum, UniProt Q8IFM5 25-526)
T1 sequence: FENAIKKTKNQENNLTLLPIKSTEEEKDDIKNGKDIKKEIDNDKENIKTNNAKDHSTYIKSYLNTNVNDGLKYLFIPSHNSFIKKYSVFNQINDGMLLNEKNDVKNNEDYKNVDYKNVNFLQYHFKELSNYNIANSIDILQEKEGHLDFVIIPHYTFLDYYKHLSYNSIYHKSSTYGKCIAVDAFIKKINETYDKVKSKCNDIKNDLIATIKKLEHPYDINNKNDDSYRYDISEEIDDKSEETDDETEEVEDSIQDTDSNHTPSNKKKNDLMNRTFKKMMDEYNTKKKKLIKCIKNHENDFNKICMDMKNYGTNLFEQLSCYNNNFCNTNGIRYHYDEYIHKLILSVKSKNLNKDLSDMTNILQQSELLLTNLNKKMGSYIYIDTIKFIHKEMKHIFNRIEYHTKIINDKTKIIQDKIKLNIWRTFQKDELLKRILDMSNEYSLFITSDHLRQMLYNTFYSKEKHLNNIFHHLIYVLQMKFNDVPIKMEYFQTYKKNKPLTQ

[4] = molecular target: T2, PfRH5 from Plasmodium falciparum strain Dd2 (Plasmodium falciparum)
[5] = molecular target: PfRH5 from Plasmodium falciparum strain W2-mef (Plasmodium falciparum)
[6] = molecular target: PfRH5 from Plasmodium falciparum strain HB3 (Plasmodium falciparum)
[7] = molecular target: PfRH5 from Plasmodium falciparum strain D10 (Plasmodium falciparum)
[8] = molecular target: T3, PfRH5 from Plasmodium falciparum strain FCR-1/FVO (Plasmodium falciparum)
[9] = molecular target: T1, PfRH5 from Plasmodium falciparum strain …; remark: listed apart in the source
[10] = molecular target: T4, PfRH5 from Plasmodium falciparum strain 7G8 (Plasmodium falciparum)
[11] = molecular target: T3, PfRH5 from Plasmodium falciparum strain …; remark: listed apart in the source
[12] = molecular target: T2, PfRH5 from Plasmodium falciparum strain …; remark: listed apart in the source
[13] = molecular target: T4, PfRH5 from Plasmodium falciparum strain …; remark: listed apart in the source

Binder | Max growth inhibition (%) [1] [%] | Max growth inhibition (%) [2] [%] | Max growth inhibition (%) [3] [%] | Max growth inhibition (%) [4] [%] | Max growth inhibition (%) [5] [%] | Max growth inhibition (%) [6] [%] | Max growth inhibition (%) [7] [%] | Max growth inhibition (%) [8] [%] | Max growth inhibition (%), Chloroquine Phosphate N/A [9] [%] | Max growth inhibition (%), Chloroquine Phosphate N/A [10] [%] | Percent Maximum Growth Inhibition, mAb (6.67 µM) + AHIS (10%) [11] [%] | Percent Maximum Growth Inhibition, mAb (6.67 µM) + ANS (10%) [11] [%] | Percent Maximum Growth Inhibition, mAb (6.67 µM) + HHIS (10%) [11] [%] | Percent Maximum Growth Inhibition, mAb (6.67 µM) + HNS (10%) [11] [%] | Percent Maximum Growth Inhibition, mAb (6.67 µM) + No serum [11] [%] | Maximum growth inhibition (%) [12] [%] | Max growth inhibition (%) [13] [%]
H1H29187P2 (antibody, V domains shown) VH: QVQLVESGGGVVQPGRFLRLSCAASGFTFSNSGMHWVRQAPGKGLEWVAGIWHDGSYKYYVDSVKGRFTISRDNSKNTLFLQMNSLRAEDTAVYYCARDDYYASGTSVDVWGQGTTVTVSS VL: not shown | 49.2 | 32.7 | 70.7 | 66 | 67.3 | 63.9 | 79.6 | 72.2 | 47.6 | 49.3 | 89.4 | 80.1 | 85.4 | 85.9 | 85.3 |  | 
H1H29143P (antibody, V domains shown) VH: EVQLVESGGGLVQPGGSLRLSCAASGFTFNNYAMSWVRQAPGRGLEWVSAISGSGDSTYYSDSVKGRFTISRDNSKNTLYLQMNSLRAEDTAVYYCAKDQGLYYYGSGSFDYWGQGTLVTVSS VL: not shown | 53.2 |  | 60.3 | 62.7 | 58.3 | 60.9 | 79.4 | 67.2 |  |  |  |  |  |  |  | 56 | 61.9
H1H29179P2 (antibody, V domains shown) VH: QVQLQESGPGLVKPSQTLSLTCTVSGGSISSSGYYWSWIRQHPGRGLEWIGYIYYSGSTYYNPSLKSRVTISVDTSKNQFSLKLNSVTAADTAVYYCARVDYGSGSSFDYWGQGTLVTVSS VL: not shown | 33.4 | -2.99 | 24.2 | 13.5 | 22.9 | 40.9 | 62.5 | 49 |  |  |  |  |  |  |  |  | 34.1
H1H29109P (antibody, V domains shown) VH: EVQLVESGGGLVQPGRSLRLSCAVSGFTFDDYAMHWVRQAPGKGLEWVSGISWNSGDIDYADSVKGRFTISRDNAKNSLYLQMNSLRAEDTALYYCAKDTLSGTGTTWYYFDYWGQGTLVTVSS VL: DIQLTQSPSFLSASVGDRVTITCWASQGISSYLIWYQQKPGKAPKLLIYAASTLQSGVPSRFSGSGSGTEFTLTISSLQPEDFATYYCQQVNSYPLTFGGGTKVEIKR | 35.9 | 8.24 | 32.2 | 42 | 37.9 | 32.2 | 44.8 | 56.7 |  |  |  |  |  |  |  |  | 39
H1H29151P2 (antibody, V domains shown) VH: QVQLVESGGGLVKPGGSLRLSCAASGFTFSDYYMNWVRQAPGKGLEWVSYISNSGNTQYYADSVKGRFTISRDNAKNSLFLQMNSLRAEDTAVYYCTREGLEYSSSEPFDYWGQGTLVTVSS VL: not shown | 26.3 | 18.3 | 35.5 | 58 | 53.9 | 31.7 | 38.7 | 53.7 |  |  |  |  |  |  |  |  | 47.5
H1H29106P (antibody, V domains shown) VH: QVQLVESGGGVVQSGRSLRLSCAASSFTFSSYGMHWVRQSPGKGLEWVAVISYDGSNKYYGDFVRGRFTISRDNSKNTLYLQMNSLRAEDTAMYYCAREVRRYYYYGMDVWGQGTTVTVSS VL: not shown | 51.7 | 27.4 | 58 | 54 | 48.9 | 48.4 | 74.9 | 54.3 |  |  |  |  |  |  |  |  | 55.5
H1H29127P (antibody, V domains shown) VH: QVQLVESGGGVVQPGRSLRLSCAASGFTFSSYGMHWVRQAPGKGLEWVAAIWYDGSNKYYADSVKGRFTISRDNSKNTLYLQMNSLRAEDTAVYFCARGEHYYGSGPFDPWGQGTLVTVSS VL: DIQMTQSPSSLSASVGDRVTITCRASQSISNYLNWYQQKPGKAPKLLIFAASSLQSGVPSRFSGSGSGTDFTLTISSLQPEDFATYYCQQSYSSPLTFGGGTKVEIKR | 47 | 25.7 | 63.9 | 64.7 | 53.6 | 59.4 | 74.4 | 61.1 |  |  |  |  |  |  |  | 56.9 | 61.2
H1H29183P2 (antibody, V domains shown) VH: QVQLVQSGPEVKKPGASVKVSCKASGYTFTSYGISWVRQAPGQGLEWLGWISGFNGRTDYTEKLQDRITMTTDRSSSTAYMELRSLRYDDTAVYYCARDGLEKLGDYWGQGTLVTVSS VL: not shown | 8.66 | -6.27 | 5.68 | 0.68 | -0.55 | 4.92 | 6.79 | 16.1 |  |  |  |  |  |  |  |  | 17.8
H1H29094P (antibody, V domains shown) VH: not shown VL: DIQMTQSPSSLSASVGDRVTITCQASQDINRDLNWYQQKSGKGPKLLIYDASNLETGVPSRFSGNRFGTDFTFTISRLQPEDIATYFCQQYKNLPYTFGQGTKLEIKR | 26.2 | 15.2 | 14.4 | 41.6 | 34.9 | 45.4 | 35.9 | 51.2 |  |  |  |  |  |  |  |  | 29.9
H1H29171P2 (antibody, V domains shown) VH: QVQLVESGGGVVQPGRSLRLSCAASGFTFSSYGMHWVRQAPGKGLEWVAVISYDGSNKYYADSVKGRFTISRDNSKNTLYLQMNSLRAEDTAVYYCAKDDWNYDAFDIWGQGTMVTVSS VL: not shown | 5.45 | -12.5 | 4.04 | 7.71 | 0.74 | 0.52 | 10.6 | 11.7 |  |  |  |  |  |  |  |  | 17
H1H29104P (antibody, V domains shown) VH: EVQLVESGGGLVQPGRSLRLSCAASGFRFDDYAMHWVRQAPGKGLEWVSGINWNSGGKGYADSVQGRFTISRDNAKNSLYLQMNSLRTEDTALYYCAKDRGIAARLLSRDAFDMWGQGTMVTVSS VL: DIQLTQSPSFLSASVGDRVTITCWASQDVSSYLAWYQQKPGKSPKLLIFAASTLQGGIPSRFSGSGSGTEFTLTISSLRPEDFATYYCQHLNTYPYTFGQGTKLEIKR | 50 | 23.6 | 34.4 | 61.3 | 47.4 | 39.8 | 55.7 | 67.4 |  |  |  |  |  |  |  | 54.1 | 35.2
H1H29166P2 (antibody, V domains shown) VH: EVQLVESGGGLLQPGRSLRLSCVASGFTFDDYAMHWVRQAPGKGLEWVSGISWNSESIGYADSVRGRFTISRDNAKNSLYLQMNSLRAEDTALYYCAKAPYSGTYFEYFRHWGQGTLVTVSS VL: not shown | 55.9 | 19.4 | 53.1 | 60 | 61.9 | 54.9 | 70.9 | 69.7 |  |  |  |  |  |  |  |  | 54.6
